The values below come from US20220372147A1 (UNIVERSIT T STUTTGART, published 2022).

One assay has as its target T1, EGFR-Fc (UniProt P00533 25-645).
T1 construct: also called immobilized EGFR-Fc antigen; not shown: Fc part
The assay can be described thus: bifunctional sandwich ELISA: immobilized EGFR-Fc, titrated eIg-Fab, then HER3-His as second antigen detected with anti-His-HRP.

Assay [1] addresses T2, FcεRI Fc fusion protein comprising the extracellular region of FcεRI (human, UniProt P12319 26-205).
T2 construct: extracellular domain; also called FcεRT; FccRT; not shown: Fc part
T2 sequence (looked up): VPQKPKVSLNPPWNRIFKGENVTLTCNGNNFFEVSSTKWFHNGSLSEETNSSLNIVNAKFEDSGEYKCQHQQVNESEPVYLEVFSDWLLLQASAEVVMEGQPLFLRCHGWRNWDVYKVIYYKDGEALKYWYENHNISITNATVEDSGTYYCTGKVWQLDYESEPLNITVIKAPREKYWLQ
The assay can be described thus: ELISA, immobilized FcεRI-Fc, anti-human Fab detection.

The target in assay [2] is T3, His-tagged HER3 protein, extracellular domain (ECD) of HER3 (aa 21-643) (UniProt P21860 21-643).
T3 construct: range 21-643; also called HER3-His; not shown: His-tag
The assay can be described thus: ELISA, immobilized HER3-His, anti-human Fc-HRP detection.

Assay [3] addresses EGFR (immobilized control antigen of Example 11) (UniProt P00533 25-645, limits assumed). The assay can be described thus: ELISA at 50 nM, immobilized EGFR, anti-human Fab detection.
In the next assay the target is T4, EGFR-moFc (UniProt P00533 25-645).
T4 construct: also called EGFR-moFc protein (second soluble antigen); not shown: murine Fc part
Put plainly: bifunctional sandwich ELISA: immobilized HER3-His, EGFR-moFc detected with anti-mouse Fc-HRP.

The target in assay [4] is T3, His-tagged HER3 protein, extracellular …. The assay can be described thus: ELISA, immobilized HER3-His, anti-human Fab-HRP detection.
For assay [5] the target is unchanged. The assay can be described thus: bifunctional sandwich ELISA: immobilized HER3-His, titrated Fab-eFab, then EGFR-moFc as second antigen detected with anti-mouse Fc-HRP.
For assay [6], the target named is T5, HER3 on HER3-expressing cancer cells (LIM1215, BT474) (UniProt P21860 20-1342, limits assumed).
T5 construct: whole, on cells; also called HER3-expressing LIM1215 cells; HER3-expressing BT474 cells
Put plainly: flow cytometry on HER3-expressing LIM1215 cells, PE anti-human Fc.

Assay [7] deals with T5, HER3 on HER3-expressing cancer cells …. Put plainly: cell-based or functional assay.
For assay [8], the target named is T6, CD3 on CD3-expressing Jurkat cells (human, UniProt P07766 23-207).
T6 construct: whole, on cells
T6 sequence (P07766 23-207): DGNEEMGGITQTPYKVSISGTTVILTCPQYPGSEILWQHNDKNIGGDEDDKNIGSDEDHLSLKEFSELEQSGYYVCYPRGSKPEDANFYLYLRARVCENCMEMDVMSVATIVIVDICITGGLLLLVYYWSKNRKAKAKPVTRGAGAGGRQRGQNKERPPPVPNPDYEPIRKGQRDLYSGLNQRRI
The assay can be described thus: flow cytometry on CD3-expressing Jurkat cells, PE anti-human Fc.

In assay [9] the target is T5, HER3 on HER3-expressing cancer cells …. Put plainly: flow cytometry on HER3-expressing LIM1215 cells, PE anti-human Fc. The source holds these as a separate data set.
Assay [10] has the same target. Put plainly: flow cytometry on HER3-expressing LIM1215 and BT474 cells.
Assay [11] has the same target. Put plainly: flow cytometry on HER3-expressing BT474 cells, PE anti-human Fc.
Assay [12] deals with T3, His-tagged HER3 protein, extracellular …. The assay can be described thus: ELISA, immobilized HER3-His, anti-human Fc-HRP detection. The source holds these as a separate data set.
Assay [13] has as its target T6, CD3 on CD3-expressing Jurkat cells. The assay can be described thus: flow cytometry on CD3-expressing Jurkat cells, PE anti-human Fc. This is another data set of the same source.

Like-named read-outs stand apart in the source and are kept apart here. Some results are limits rather than exact numbers.

B1: tetravalent and bispecific eIg-Fab molecule targeting HER3 and EGFR (bispecific antibody)
light 1: QAGLTQPPAVSVAPGQTASITCGRDNIGSRSVHWYQQKPGQAPVLVVYDDSDRPAGIPERFSGSNYENTATLTISRVEAGDEADYYCQVWGITSDHVVFGGGTKLTVLGTDFTPPTVKILQSSSDGGGHFPPTIQLLCLVSGYTPGTIQITWLEDGQVMDVDLSTASTTQEGELASTQSELTLSQKHWLSDRTYTCQVTYQGHTFEDSTKKCADSN
light 2: DIQLTQSPSFLSASVGDRVTITCRASQSIGTNIHWYQQKPGKAPKLLIKYASESISGVPSRFSGSGSGTEFTLTISSLQPEDFATYYCQQNNNWPTTFGAGTKLEIKRTVAAPSVFIFPPSDEQLKSGTASVVCLLNNFYPREAKVQWKVDNALQSGNSQESVTEQDSKDSTYSLSSTLTLSKADYEKHKVYACEVTHQGLSSPVTKSFNRGEC
heavy: not shown
notes: Homodimerizing Fc; also called eIg-Fab EGFRxHER3
In the case of B1, the 50% effective concentration (EC50) in the assay with EGFR-Fc amounted to 0.23 nM; in assay [2], 3.3 nM. The binding result in assay [1] is given as “no binding (tested: 50 nM)”.

B2: bivalent and bispecific Fab-eFab molecule targeting HER3 and EGFR (bispecific antibody)
light 1: QAGLTQPPAVSVAPGQTASITCGRDNIGSRSVHWYQQKPGQAPVLVVYDDSDRPAGIPERFSGSNYENTATLTISRVEAGDEADYYCQVWGITSDHVVFGGGTKLTVLGTDFTPPTVKILQSSSDGGGHFPPTIQLLCLVSGYTPGTIQITWLEDGQVMDVDLSTASTTQEGELASTQSELTLSQKHWLSDRTYTCQVTYQGHTFEDSTKKCADSN
light 2: DIQLTQSPSFLSASVGDRVTITCRASQSIGTNIHWYQQKPGKAPKLLIKYASESISGVPSRFSGSGSGTEFTLTISSLQPEDFATYYCQQNNNWPTTFGAGTKLEIKRTVAAPSVFIFPPSDEQLKSGTASVVCLLNNFYPREAKVQWKVDNALQSGNSQESVTEQDSKDSTYSLSSTLTLSKADYEKHKVYACEVTHQGLSSPVTKSFNRGEC
heavy: EVQLVESGGGLVQPGGSLRLSCAASGFSLTNYGVHWVRQAPGKGLEWLGVIWSGGNTDYNTPFTSRFTISRDNSKNTLYLQMNSLRAEDTAVYYCARALTYYDYEFAYWGQGTTVTVSSASTKGPSVFPLAPSSKSTSGGTAALGCLVKDYFPEPVTVSWNSGALTSGVHTFPAVLQSSGLYSLSSVVTVPSSSLGTQTYICNVNHKPSNTKVDKKVEPKSCGGSGGGGSGGQVQLQQSGPGLVKPSQTLSLTCAISGDSVSSNRAAWNWIRQSPSRGLEWLGRTYYRSKWYNDYAQSLKSRITINPDTPKNQFSLQLNSVTPEDTAVYYCARDGQLGLDALDIWGQGTMVTVSSDFTPPTVKILQSSCDGGGHFPPTIQLLCLVSGYTPGTINITWLEDGQVMDVDLSTASTTQEGELASTQSELTLSQKHWLSDRTYTCQVTYQGHTFEDSTKKSADSNAAAHHHHHH
notes: No Fc region; one site for EGFR and one for HER3; C-terminal His-tag on the heavy chain; also called Fab-eFab EGFRxHER3
With B2, the results for the binding result (in assay [3]; with EGFR-moFc; in assay [1]) were “binds”, “binds” and “no binding (tested: 50 nM)”, respectively. Also, the concentration giving a half-maximal response (EC50) is 3.9 nM in assay [4] and 1.4 nM in assay [5].

B3: bispecific and bivalent anti-CD3 x anti-HER3 eIgG (bispecific antibody)
light 1: QAGLTQPPAVSVAPGQTASITCGRDNIGSRSVHWYQQKPGQAPVLVVYDDSDRPAGIPERFSGSNYENTATLTISRVEAGDEADYYCQVWGITSDHVVFGGGTKLTVLGQPKAAPSVTLFPPSSEELQANKATLVCLISDFYPGAVTVAWKADSSPVKAGVETTTPSKQSNNKYAASSYLSLTPEQWKSHRSYSCQVTHEGSTVEKTVAPTECS
heavy 1: not shown
heavy 2: not shown
light 2: not shown
notes: One site for HER3 (3-43), one for CD3 (huU3, humanized UCHT1); also called eIg1; eIgl
As for B3, the 50% effective concentration (EC50) is 0.4 nM in [6]; 5.1 nM in assay [8]; 4 nM in assay [9]; 4.8 nM in [11]; 2.1 nM in [12]; 11.9 nM in assay [13]. Besides, the “EC50 value in cell killing (PBMC-mediated cytotoxicity on BT-474 cells, crystal violet)” value in [7] is 3.8 nM. Also, in assay [7], the “EC50 value in cell killing (PBMC-mediated cytotoxicity on LIM1215 cells, crystal violet)” value amounted to 5.8 nM. Moreover, the “factor weaker binding than the bispecific, trivalent eIg-Fab molecules” value in [10] is ≤ 50 fold. The binding result in assay [1] was “no binding (tested: 50 nM)”.
